# Data: CN111690059A (WUHAN INST OF BIOLOGICAL PRODUCTS CO LTD, dated 2020)
# Assays:
# [1] = target: T1, SARS-CoV-2刺突蛋白S1的RBD结构域重组蛋白(Sino公司，货号40592-V05H) (SARS-CoV-2, UniProt P0DTC2 319-541); assay: blocking ELISA, coated RBD, competitor His-tagged ACE2
# T1 construct: domain: RBD结构域; also called RBD结构域的重组蛋白
# [2] = target: T1, SARS-CoV-2刺突蛋白S1的RBD结构域重组蛋白(Sino公司，货号405 …); assay: ELISA, coated RBD 1.0 μg/mL, goat anti-human IgG-HRP detection
# [3] = target: T2, SARS-CoV-2刺突S1亚基蛋白(Sino公司，货号:40591-V02H) (SARS-CoV-2, UniProt P0DTC2 16-685); assay: blocking ELISA, coated S1 subunit protein, competitor His-tagged ACE2
# T2 construct: domain: S1; also called SARS-CoV-2(2019-nCoV)病毒的刺突蛋白S1
# [4] = target: T3, SARS-CoV-2刺突S1-His重组蛋白(Sino公司，货号:40591-V08H) (SARS-CoV-2, UniProt P0DTC2 16-685); assay: ELISA, coated S1-His 1.0 μg/mL, goat anti-human IgG-HRP detection
# T3 construct: domain: S1; also called S1蛋白; SARS-CoV-2刺突蛋白S1
binder,measurement,setting,value
"抗SARS-CoV-2的单克隆抗体1D7 (antibody, V domains shown, also called 1D7抗体; 人源抗SARS-CoV-2抗体1D7) VH: EVQLVESGGGWIQPGGSLRLSCAASGLTVSSNYMSWVRQAPGKGLEWVSVIYSGGSTYYADSVKGRFTISRDNSKNTLYLQMNSLRAEDTAVYYCARDLVVYGMDVWGQGTTVTVSS VL: AIRMTQSPSSLSASVGDRVTITCRASQSISSYLNWYQQKPGKAPKLLIYAASSLQSGVPSRFSGSGSGTDFTLTISSLQPEDFATYYCQQSYSTLGMYTFGQGTKLEIK",IC50,[1],4.1 nM
same,EC50,[2],0.055 nM
same,IC50,[3],7.8 nM
same,EC50,[4],0.092 nM
